{"source": "patent US20190352341", "about": "(published 2019)", "key": {"HSC70 [1]": {"target": "T1, HSC70 (bovine, UniProt P19120)", "T1 sequence (P19120 2-650)": "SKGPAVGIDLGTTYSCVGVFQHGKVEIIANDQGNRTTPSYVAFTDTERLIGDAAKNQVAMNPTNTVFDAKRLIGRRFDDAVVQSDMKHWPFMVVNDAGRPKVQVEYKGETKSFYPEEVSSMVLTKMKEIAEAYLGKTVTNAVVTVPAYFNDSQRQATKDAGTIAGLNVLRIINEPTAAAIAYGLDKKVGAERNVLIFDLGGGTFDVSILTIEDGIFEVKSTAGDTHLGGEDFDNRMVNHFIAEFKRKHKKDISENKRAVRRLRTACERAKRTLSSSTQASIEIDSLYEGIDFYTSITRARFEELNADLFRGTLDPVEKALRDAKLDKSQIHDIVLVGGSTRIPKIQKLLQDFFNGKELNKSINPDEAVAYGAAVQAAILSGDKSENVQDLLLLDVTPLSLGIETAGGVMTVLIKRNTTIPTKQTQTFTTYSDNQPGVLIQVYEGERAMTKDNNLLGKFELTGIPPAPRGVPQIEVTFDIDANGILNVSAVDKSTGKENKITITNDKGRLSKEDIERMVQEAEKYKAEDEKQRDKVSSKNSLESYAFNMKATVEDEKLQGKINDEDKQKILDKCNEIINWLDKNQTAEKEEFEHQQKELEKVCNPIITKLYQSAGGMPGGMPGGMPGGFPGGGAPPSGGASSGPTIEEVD", "assay": "SPR, 25C pH 7.4"}, "HSC70 [2]": {"target": "T1, HSC70", "assay": "SPR, 25C pH 7.4", "remark": "listed apart in the source"}}, "note": "Read-outs that look alike come from different tables or passages of the source. Square brackets hold non-standard residues; d marks the D form. Ends that are not written are not given here. Met(O) = CS(=O)CC[C@H](N)C(=O)O; pS = N[C@@H](COP(=O)(O)O)C(=O)O"}
{"binder": "RIHMVYSKR[pS]GKPRGYAFIEY", "note": "[P140]", "values": [{"measurement": "Kd", "setting": "HSC70 [1]", "result": 6.94, "unit": "µM"}]}
{"binder": "RIH[Met(O)]VYSKR[pS]GKPRGYAFIEY", "note": "[P140(MO)]", "values": [{"measurement": "Kd", "setting": "HSC70 [2]", "result": 1.91, "unit": "µM"}]}
